{"source": "paper PMC5391116", "about": "(PLoS ONE, 2017)", "binders": {"B1": {"name": "IgG1 MET antibody (variable regions from LY2875358 on human IgG1 constant regions) (antibody, V domains shown)", "VH": "QVQLVQSGAEVKKPGASVKVSCKASGYTFTDYYMHWVRQAPGQGLEWMGRVNPNRRGTTYNQKFEGRVTMTTDTSTSTAYMELRSLRSDDTAVYYCARANWLDYWGQGTTVTVSS", "VL": "DIQMTQSPSSLSASVGDRVTITCSVSSSVSSIYLHWYQQKPGKAPKLLIYSTSNLASGVPSRFSGSGSGTDFTLTISSLQPEDFATYYCQVYSGYPLTFGGGTKVEIK"}}, "biological_target": "Human MET ECD (extracellular domain) containing a FLIS tag (Homo sapiens, UniProt P08581)", "sequence (P08581 25-932)": "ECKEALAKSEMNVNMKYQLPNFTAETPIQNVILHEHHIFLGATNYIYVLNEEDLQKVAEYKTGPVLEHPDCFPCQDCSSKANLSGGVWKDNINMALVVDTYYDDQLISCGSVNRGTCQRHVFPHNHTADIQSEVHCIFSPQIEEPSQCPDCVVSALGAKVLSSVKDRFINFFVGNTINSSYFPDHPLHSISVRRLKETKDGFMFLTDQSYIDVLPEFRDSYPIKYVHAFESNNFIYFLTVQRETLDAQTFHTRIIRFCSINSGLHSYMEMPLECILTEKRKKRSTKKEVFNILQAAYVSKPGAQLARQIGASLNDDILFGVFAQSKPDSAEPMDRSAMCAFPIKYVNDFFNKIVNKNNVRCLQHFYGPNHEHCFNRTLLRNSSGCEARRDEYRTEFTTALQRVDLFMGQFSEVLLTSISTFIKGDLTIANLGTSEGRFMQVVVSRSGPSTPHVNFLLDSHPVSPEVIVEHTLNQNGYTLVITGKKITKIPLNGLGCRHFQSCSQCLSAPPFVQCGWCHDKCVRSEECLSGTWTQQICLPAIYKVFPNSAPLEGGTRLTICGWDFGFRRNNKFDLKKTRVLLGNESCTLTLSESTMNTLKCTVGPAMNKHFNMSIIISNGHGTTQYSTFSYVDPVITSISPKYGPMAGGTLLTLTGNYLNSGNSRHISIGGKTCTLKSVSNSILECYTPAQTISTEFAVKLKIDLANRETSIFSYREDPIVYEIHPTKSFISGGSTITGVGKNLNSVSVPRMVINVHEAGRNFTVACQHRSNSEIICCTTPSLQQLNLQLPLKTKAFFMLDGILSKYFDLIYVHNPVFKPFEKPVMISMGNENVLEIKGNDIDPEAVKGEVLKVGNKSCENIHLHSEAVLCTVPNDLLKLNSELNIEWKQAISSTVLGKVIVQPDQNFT", "experiment": "cell-based or functional assay", "data": [{"binder": "B1", "values": [{"measurement": "phospho-AKT activity levels in Caki-1 cells (MSD ELISA), various doses of antibody for 15 minutes", "value": "> 8", "unit": "fold"}]}]}
